Experimental data from patent US20140274782A1, “AFFINITY REAGENTS AND METHODS FOR DETECTION, PURIFICATION, AND PROTEOMIC ANALYSIS OF METHYLATED PROTEINS” (The Board of Trustees of the Leland Stanford Junior …, priority 2013, published 2014).

Key:
[1] = target: CDKL5, G9a-methylated (human) (UniProt O76039); experiment: ProtoArray methylated with G9a SET domain
[2] = target: TTC27, G9a-methylated (human) (UniProt Q6P3X3); experiment: ProtoArray methylated with G9a SET domain
[3] = target: MOBKL3, G9a-methylated (human) (UniProt Q9Y3A3); experiment: ProtoArray methylated with G9a SET domain
Sequence of MOBKL3, G9a-methylated (human) (Q9Y3A3 whole entry, the tested form may be a part): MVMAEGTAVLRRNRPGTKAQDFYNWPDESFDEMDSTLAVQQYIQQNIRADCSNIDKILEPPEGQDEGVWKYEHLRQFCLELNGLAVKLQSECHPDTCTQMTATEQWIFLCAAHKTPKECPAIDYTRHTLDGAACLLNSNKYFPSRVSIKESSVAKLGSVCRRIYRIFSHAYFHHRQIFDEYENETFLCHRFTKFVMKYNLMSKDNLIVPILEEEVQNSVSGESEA

[4] = target: VPS29, G9a-methylated (human) (UniProt Q9UBQ0); experiment: ProtoArray methylated with G9a SET domain
[5] = target: GPX1, G9a-methylated (human) (UniProt P07203); experiment: ProtoArray methylated with G9a SET domain
Sequence of GPX1, G9a-methylated (human) (P07203 whole entry, the tested form may be a part): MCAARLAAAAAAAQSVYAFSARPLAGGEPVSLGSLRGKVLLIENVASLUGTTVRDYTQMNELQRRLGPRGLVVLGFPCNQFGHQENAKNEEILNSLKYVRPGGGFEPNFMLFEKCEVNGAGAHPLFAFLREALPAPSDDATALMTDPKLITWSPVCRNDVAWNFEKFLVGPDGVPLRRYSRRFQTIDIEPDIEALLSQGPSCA

[6] = target: MRPL21, G9a-methylated (human) (UniProt Q7Z2W9); experiment: ProtoArray methylated with G9a SET domain
[7] = target: CSF3, G9a-methylated (human) (UniProt P09919); experiment: ProtoArray methylated with G9a SET domain
Sequence of CSF3, G9a-methylated (human) (P09919 31-207 limits assumed): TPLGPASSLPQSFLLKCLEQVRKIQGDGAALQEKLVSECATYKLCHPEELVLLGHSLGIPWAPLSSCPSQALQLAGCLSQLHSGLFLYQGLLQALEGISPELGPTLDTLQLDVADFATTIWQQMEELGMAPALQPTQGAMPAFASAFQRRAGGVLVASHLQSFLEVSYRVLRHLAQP

[8] = target: FTL, G9a-methylated (human) (UniProt P02792); experiment: ProtoArray methylated with G9a SET domain
Sequence of FTL, G9a-methylated (human) (P02792 whole entry, the tested form may be a part): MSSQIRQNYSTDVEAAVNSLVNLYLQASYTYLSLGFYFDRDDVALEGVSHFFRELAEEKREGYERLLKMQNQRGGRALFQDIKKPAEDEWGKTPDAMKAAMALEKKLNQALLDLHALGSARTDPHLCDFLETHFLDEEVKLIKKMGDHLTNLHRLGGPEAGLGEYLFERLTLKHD

[9] = target: RHBDD1, G9a-methylated (human) (UniProt Q8TEB9); experiment: ProtoArray methylated with G9a SET domain
[10] = target: LYRM7, G9a-methylated (human) (UniProt Q5U5X0); experiment: ProtoArray methylated with G9a SET domain
[11] = target: TMED5, G9a-methylated (human) (UniProt Q9Y3A6); experiment: ProtoArray methylated with G9a SET domain
Sequence of TMED5, G9a-methylated (human) (Q9Y3A6 28-229 limits assumed): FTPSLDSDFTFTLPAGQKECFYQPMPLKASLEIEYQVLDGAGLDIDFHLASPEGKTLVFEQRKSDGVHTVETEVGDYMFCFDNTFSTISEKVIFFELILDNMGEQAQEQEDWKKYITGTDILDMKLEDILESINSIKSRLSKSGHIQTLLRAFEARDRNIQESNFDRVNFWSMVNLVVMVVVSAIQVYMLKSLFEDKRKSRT

[12] = target: RPL14, G9a-methylated (human) (UniProt P50914); experiment: ProtoArray methylated with G9a SET domain
[13] = target: C2orf43, G9a-methylated (human) (UniProt Q9H6V9); experiment: ProtoArray methylated with G9a SET domain
Sequence of C2orf43, G9a-methylated (human) (Q9H6V9 whole entry, the tested form may be a part): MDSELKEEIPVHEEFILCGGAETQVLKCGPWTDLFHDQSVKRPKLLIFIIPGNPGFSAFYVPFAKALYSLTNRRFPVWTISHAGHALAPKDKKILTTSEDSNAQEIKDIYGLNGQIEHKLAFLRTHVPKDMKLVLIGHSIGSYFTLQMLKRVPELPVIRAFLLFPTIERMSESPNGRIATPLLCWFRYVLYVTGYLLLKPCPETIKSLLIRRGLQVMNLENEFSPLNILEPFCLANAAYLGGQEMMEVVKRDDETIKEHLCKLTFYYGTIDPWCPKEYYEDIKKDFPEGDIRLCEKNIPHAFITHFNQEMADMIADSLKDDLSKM

[14] = target: SERPINB2, G9a-methylated (human) (UniProt P05120); experiment: ProtoArray methylated with G9a SET domain
[15] = target: GPR108, G9a-methylated (human) (UniProt Q9NPR9); experiment: ProtoArray methylated with G9a SET domain
[16] = target: CRB3, G9a-methylated (human) (UniProt Q9BUF7); experiment: ProtoArray methylated with G9a SET domain
Sequence of CRB3, G9a-methylated (human) (Q9BUF7 27-120 limits assumed): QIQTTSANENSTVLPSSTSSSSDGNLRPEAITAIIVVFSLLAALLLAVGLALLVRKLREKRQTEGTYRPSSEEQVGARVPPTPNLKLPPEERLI

[17] = target: SCGB2A2, G9a-methylated (human) (UniProt Q13296); experiment: ProtoArray methylated with G9a SET domain
[18] = target: NME7, G9a-methylated (human) (UniProt Q9Y5B8); experiment: ProtoArray methylated with G9a SET domain
Sequence of NME7, G9a-methylated (human) (Q9Y5B8 37-376 limits assumed): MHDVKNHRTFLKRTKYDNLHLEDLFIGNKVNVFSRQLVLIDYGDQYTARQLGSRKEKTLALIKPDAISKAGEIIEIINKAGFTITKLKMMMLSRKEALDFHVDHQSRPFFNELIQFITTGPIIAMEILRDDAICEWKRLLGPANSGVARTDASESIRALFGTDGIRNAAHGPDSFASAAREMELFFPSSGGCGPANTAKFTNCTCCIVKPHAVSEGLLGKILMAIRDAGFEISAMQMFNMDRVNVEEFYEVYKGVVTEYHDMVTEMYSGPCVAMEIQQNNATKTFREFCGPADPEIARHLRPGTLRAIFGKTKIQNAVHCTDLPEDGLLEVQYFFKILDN

[19] = target: TGDS, G9a-methylated (human) (UniProt O95455); experiment: ProtoArray methylated with G9a SET domain
Sequence of TGDS, G9a-methylated (human) (O95455 whole entry, the tested form may be a part): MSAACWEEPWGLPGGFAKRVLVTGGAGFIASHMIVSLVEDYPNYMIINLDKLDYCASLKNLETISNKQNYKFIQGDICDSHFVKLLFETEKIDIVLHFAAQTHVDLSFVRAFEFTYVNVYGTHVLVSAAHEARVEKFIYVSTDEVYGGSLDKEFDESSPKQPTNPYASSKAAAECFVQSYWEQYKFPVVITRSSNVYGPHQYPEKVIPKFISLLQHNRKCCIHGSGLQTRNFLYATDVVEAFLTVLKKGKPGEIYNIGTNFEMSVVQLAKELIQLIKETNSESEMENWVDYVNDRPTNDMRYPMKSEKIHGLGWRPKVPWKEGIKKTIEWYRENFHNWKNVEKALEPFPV

[20] = target: BLCAP, G9a-methylated (human) (UniProt P62952); experiment: ProtoArray methylated with G9a SET domain
Sequence of BLCAP, G9a-methylated (human) (P62952 whole entry, the tested form may be a part): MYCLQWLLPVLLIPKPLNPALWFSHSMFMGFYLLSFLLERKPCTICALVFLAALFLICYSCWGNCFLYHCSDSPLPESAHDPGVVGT

[21] = target: C12orf62, G9a-methylated (human) (UniProt Q96I36); experiment: ProtoArray methylated with G9a SET domain
[22] = target: SMYD5, G9a-methylated (human) (UniProt Q6GMV2); experiment: ProtoArray methylated with G9a SET domain
Sequence of SMYD5, G9a-methylated (human) (Q6GMV2 whole entry, the tested form may be a part): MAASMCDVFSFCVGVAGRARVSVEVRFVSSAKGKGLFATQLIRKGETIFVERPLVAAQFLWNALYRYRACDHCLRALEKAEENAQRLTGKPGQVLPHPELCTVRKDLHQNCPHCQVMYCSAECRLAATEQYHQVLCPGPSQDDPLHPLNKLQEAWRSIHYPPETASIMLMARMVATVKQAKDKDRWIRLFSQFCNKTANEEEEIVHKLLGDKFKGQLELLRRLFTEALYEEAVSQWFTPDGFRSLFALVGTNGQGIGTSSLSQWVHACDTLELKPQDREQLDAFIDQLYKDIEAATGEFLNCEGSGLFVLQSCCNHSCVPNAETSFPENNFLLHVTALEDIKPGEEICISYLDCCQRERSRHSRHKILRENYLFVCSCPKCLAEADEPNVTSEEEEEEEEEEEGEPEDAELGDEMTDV

[23] = target: LTC4S, G9a-methylated (human) (UniProt Q16873); experiment: ProtoArray methylated with G9a SET domain
[24] = target: CDK5RAP3, G9a-methylated (human) (UniProt Q96JB5); experiment: ProtoArray methylated with G9a SET domain
Sequence of CDK5RAP3, G9a-methylated (human) (Q96JB5 whole entry, the tested form may be a part): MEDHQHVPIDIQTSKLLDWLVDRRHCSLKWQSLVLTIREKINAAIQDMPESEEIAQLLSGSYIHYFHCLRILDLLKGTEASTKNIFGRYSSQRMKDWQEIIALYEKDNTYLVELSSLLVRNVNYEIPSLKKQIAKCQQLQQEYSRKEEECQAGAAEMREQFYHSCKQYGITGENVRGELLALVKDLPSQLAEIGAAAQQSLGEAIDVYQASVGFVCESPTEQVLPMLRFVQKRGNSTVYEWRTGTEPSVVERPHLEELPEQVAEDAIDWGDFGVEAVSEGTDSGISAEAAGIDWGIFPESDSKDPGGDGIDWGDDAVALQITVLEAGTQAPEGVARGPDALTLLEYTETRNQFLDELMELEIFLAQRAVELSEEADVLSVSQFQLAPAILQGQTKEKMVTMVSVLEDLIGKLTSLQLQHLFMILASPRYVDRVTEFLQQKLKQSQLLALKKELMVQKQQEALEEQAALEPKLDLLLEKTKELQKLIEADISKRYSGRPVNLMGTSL

[25] = target: DYNC2LI1, G9a-methylated (human) (UniProt Q8TCX1); experiment: ProtoArray methylated with G9a SET domain
[26] = target: PHF20L1, G9a-methylated (human) (UniProt A8MW92); experiment: ProtoArray methylated with G9a SET domain
Sequence of PHF20L1, G9a-methylated (human) (A8MW92 other isoform, or with tags, fused parts or gaps limits assumed): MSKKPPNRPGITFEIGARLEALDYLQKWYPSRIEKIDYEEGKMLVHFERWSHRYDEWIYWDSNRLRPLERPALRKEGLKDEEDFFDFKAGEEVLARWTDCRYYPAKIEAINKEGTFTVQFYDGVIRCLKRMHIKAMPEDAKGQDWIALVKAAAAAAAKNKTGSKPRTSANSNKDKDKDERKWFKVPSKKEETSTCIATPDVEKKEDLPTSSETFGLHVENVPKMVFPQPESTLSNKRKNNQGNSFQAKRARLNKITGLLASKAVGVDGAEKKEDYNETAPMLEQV

[27] = target: CNTD1, G9a-methylated (human) (UniProt Q8N815); experiment: ProtoArray, G9a array SNR minus GST array SNR
Sequence of CNTD1, G9a-methylated (human) (Q8N815 whole entry): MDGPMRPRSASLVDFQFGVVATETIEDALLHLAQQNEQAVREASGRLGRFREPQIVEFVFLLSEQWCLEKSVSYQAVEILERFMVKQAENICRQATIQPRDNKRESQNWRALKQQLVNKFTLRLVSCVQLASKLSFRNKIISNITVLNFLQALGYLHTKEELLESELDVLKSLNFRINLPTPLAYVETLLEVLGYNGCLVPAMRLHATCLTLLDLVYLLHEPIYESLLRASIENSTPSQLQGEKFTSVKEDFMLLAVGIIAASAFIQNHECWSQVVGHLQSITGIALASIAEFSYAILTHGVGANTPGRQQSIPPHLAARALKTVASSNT

[28] = target: LARP6, G9a-methylated (human) (UniProt Q9BRS8); experiment: ProtoArray, G9a array SNR minus GST array SNR
[29] = target: CSF3, G9a-methylated (human) (UniProt P09919); experiment: ProtoArray, G9a array SNR minus GST array SNR
[30] = target: PPARG, G9a-methylated (human) (UniProt P37231); experiment: ProtoArray, G9a array SNR minus GST array SNR
[31] = target: FTL, G9a-methylated (human) (UniProt P02792); experiment: ProtoArray, G9a array SNR minus GST array SNR
[32] = target: SMYD3, G9a-methylated (human) (UniProt Q9H7B4); experiment: ProtoArray, G9a array SNR minus GST array SNR
Sequence of SMYD3, G9a-methylated (human) (Q9H7B4 whole entry): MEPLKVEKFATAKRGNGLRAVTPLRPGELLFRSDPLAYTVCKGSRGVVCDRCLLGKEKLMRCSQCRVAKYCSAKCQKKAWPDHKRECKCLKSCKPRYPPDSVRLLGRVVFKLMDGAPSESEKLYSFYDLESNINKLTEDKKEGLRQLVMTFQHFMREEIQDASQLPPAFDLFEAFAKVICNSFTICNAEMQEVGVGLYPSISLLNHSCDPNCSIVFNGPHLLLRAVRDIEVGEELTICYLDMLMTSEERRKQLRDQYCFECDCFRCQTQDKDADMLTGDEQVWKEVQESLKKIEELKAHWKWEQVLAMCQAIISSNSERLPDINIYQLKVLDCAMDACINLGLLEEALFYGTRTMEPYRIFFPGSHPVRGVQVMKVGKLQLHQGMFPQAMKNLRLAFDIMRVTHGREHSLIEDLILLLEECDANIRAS

[33] = target: UBE2S, G9a-methylated (human) (UniProt Q16763); experiment: ProtoArray, G9a array SNR minus GST array SNR
[34] = target: PTCD2, G9a-methylated (human) (UniProt Q8WV60); experiment: ProtoArray, G9a array SNR minus GST array SNR
Sequence of PTCD2, G9a-methylated (human) (Q8WV60 whole entry): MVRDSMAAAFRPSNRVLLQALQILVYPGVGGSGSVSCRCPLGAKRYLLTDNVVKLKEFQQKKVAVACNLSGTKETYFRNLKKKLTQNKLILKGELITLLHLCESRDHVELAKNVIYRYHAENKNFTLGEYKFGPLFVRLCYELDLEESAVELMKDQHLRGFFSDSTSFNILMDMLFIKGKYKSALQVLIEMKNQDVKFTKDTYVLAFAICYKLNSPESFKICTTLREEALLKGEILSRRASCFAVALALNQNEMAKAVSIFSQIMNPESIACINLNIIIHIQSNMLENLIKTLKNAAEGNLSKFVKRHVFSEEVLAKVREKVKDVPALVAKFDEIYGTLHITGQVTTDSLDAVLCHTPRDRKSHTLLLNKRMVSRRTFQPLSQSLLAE

[35] = target: C2orf43, G9a-methylated (human) (UniProt Q9H6V9); experiment: ProtoArray, G9a array SNR minus GST array SNR
[36] = target: RAB7B, G9a-methylated (human) (UniProt Q96AH8); experiment: ProtoArray, G9a array SNR minus GST array SNR
[37] = target: CTSZ, G9a-methylated (human) (UniProt Q9UBR2); experiment: ProtoArray, G9a array SNR minus GST array SNR
[38] = target: Magmas, G9a-methylated (human) (UniProt Q9Y3D7); experiment: ProtoArray, G9a array SNR minus GST array SNR
Sequence of Magmas, G9a-methylated (human) (Q9Y3D7 whole entry): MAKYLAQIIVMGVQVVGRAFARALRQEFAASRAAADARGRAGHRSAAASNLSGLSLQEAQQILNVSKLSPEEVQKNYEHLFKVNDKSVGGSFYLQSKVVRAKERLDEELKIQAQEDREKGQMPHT

[39] = target: GPX5, G9a-methylated (human) (UniProt O75715); experiment: ProtoArray, G9a array SNR minus GST array SNR
Sequence of GPX5, G9a-methylated (human) (O75715 other isoform, or with tags, fused parts or gaps limits assumed): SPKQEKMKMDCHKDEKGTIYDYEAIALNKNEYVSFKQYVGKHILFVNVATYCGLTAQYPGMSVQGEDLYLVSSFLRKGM

[40] = target: DYNC2LI1, G9a-methylated (human) (UniProt Q8TCX1); experiment: ProtoArray, G9a array SNR minus GST array SNR
[41] = target: C10orf83, G9a-methylated (human) (UniProt Q8NDC4); experiment: ProtoArray, G9a array SNR minus GST array SNR
[42] = target: GGPS1, G9a-methylated (human) (UniProt O95749); experiment: ProtoArray, G9a array SNR minus GST array SNR
[43] = target: PHF20L1, G9a-methylated (human) (UniProt A8MW92); experiment: ProtoArray, G9a array SNR minus GST array SNR

G9a Average SNR [1]: 19.7
G9a Average SNR [2]: 20.7
G9a Average SNR [3]: 13.6
G9a Average SNR [4]: 16.6
G9a Average SNR [5]: 15.8
G9a Average SNR [6]: 23.3
G9a Average SNR [7]: 19
G9a Average SNR [8]: 34.2
G9a Average SNR [9]: 12.3
G9a Average SNR [10]: 17.2
G9a Average SNR [11]: 15.1
G9a Average SNR [12]: 18.4
G9a Average SNR [13]: 11.9
G9a Average SNR [14]: 17.9
G9a Average SNR [15]: 19.2
G9a Average SNR [16]: 15.2
G9a Average SNR [17]: 14.8
G9a Average SNR [18]: 14.1
G9a Average SNR [19]: 13.6
G9a Average SNR [20]: 26.4
G9a Average SNR [21]: 14.9
G9a Average SNR [22]: 20.7
G9a Average SNR [23]: 14.1
G9a Average SNR [24]: 13.8
G9a Average SNR [25]: 11.6
G9a Average SNR [26]: 21.5
G9a-GST [27]: 12.2
G9a-GST [28]: 16.6
G9a-GST [29]: 17.7
G9a-GST [30]: 13.3
G9a-GST [31]: 33.5
G9a-GST [32]: 16.3
G9a-GST [33]: 24.7
G9a-GST [34]: 18.7
G9a-GST [35]: 12.1
G9a-GST [36]: 13
G9a-GST [37]: 12.3
G9a-GST [38]: 15.1
G9a-GST [39]: 25.6
G9a-GST [40]: 12.4
G9a-GST [41]: 14.6
G9a-GST [42]: 12.8
G9a-GST [43]: 20.4
Substance: 3× Flag-3×MBT (designed binder)
